Data reported in US20170008928A1, “NOVEL PEPTIDES AND PEPTIDE DERIVATIVES AND USES THEREOF” (Novo Nordisk A/S, priority 2015, published 2017).
Starred links: 1 amine or outer side, 2 acyl side, 3 side chain; linkers in the order of their positions; H or OH if unused. Non-standard residues stand in square brackets, D forms with d. No end group written: not given here. *: point of attachment. Phe(4-CH2SO3H) = N[C@@H](Cc1ccc(CS(=O)(=O)O)cc1)C(=O)O; C20 diacid = O=C(O)CCCCCCCCCCCCCCCCCCC(=O)*; sY = N[C@@H](Cc1ccc(OS(=O)(=O)O)cc1)C(=O)O; C18 diacid = O=C(O)CCCCCCCCCCCCCCCCC(=O)*; C16 diacid = O=C(O)CCCCCCCCCCCCCCC(=O)*; γGlu = O=C(O)[C@H](CCC(=O)[*:2])N[*:1]; C14 diacid = O=C(O)CCCCCCCCCCCCC(=O)*; βAsp = O=C(O)[C@H](CC(=O)[*:2])N[*:1]; Met(O2) = CS(=O)(=O)CC[C@H](N)C(=O)O; NMeF = CN[C@@H](Cc1ccccc1)C(=O)O; dNMeD = CN[C@H](CC(=O)O)C(=O)O; Nle = CCCC[C@H](N)C(=O)O; AEEA = NCCOCCOCC(=O)O

T1: human cholecystokinin-2 receptor (human, UniProt P32239 1-447)
T1 construct: whole, on cells; also called CCK-2R; CCK-2 receptor
T1 sequence (looked up): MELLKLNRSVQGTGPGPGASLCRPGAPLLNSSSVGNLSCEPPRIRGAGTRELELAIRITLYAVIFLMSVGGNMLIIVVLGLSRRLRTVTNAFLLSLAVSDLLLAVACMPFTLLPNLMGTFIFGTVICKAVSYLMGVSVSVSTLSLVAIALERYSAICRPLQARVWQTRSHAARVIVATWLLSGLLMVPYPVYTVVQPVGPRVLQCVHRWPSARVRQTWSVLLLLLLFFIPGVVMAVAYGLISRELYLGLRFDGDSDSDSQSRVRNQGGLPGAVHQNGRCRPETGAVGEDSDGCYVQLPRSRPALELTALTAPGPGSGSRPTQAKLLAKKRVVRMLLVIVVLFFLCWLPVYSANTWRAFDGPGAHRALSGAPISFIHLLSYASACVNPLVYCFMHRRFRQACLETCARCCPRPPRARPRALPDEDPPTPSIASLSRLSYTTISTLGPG

T2: human cholecystokinin-1 receptor (human, UniProt P32238 1-428)
T2 construct: whole, on cells; also called CCK-1R; CCK-1 receptor
T2 sequence (looked up): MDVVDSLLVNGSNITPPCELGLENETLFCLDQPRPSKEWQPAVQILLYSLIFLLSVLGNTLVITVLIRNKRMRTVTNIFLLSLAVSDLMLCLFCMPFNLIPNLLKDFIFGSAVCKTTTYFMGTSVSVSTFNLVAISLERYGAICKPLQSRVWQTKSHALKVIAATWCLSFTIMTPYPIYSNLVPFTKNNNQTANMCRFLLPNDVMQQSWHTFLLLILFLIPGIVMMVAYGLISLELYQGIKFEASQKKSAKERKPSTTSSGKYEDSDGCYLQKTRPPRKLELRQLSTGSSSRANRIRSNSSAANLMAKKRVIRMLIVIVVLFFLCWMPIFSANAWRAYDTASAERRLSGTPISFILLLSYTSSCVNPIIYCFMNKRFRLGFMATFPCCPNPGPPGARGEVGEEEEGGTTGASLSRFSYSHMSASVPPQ

B1: 2-[2-[2-[[2-[2-[2-[[(4S)-4-Carboxy-4-(13-carboxytridecanoylamino)butanoyl]amino]ethoxy]ethoxy]acetyl]amino]ethoxy]ethoxy]acetyl-Glu-sTyr-Leu-Gly-Trp-Nle-DMeAsp- … (peptide)
peptide: {C14 diacid-γGlu-AEEA-AEEA}-E[sY]LGW[Nle][dNMeD][NMeF]-NH2
SMILES: CCCC[C@H](NC(=O)[C@H](Cc1c[nH]c2ccccc12)NC(=O)CNC(=O)[C@H](CC(C)C)NC(=O)[C@H](Cc1ccc(OS(=O)(=O)O)cc1)NC(=O)[C@H](CCC(=O)O)NC(=O)COCCOCCNC(=O)COCCOCCNC(=O)CC[C@H](NC(=O)CCCCCCCCCCCCC(=O)O)C(=O)O)C(=O)N(C)[C@H](CC(=O)O)C(=O)N(C)[C@@H](Cc1ccccc1)C(N)=O
notes: X = Nle or Nal
B2: 2-[2-[2-[[2-[2-[2-[[(4S)-4-Carboxy-4-(19-carboxynonadecanoylamino)butanoyl]amino]ethoxy]ethoxy]acetyl]amino]ethoxy]ethoxy]acetyl-Glu-sTyr-Leu-Gly-Trp-Nle-DMeAsp … (peptide)
peptide: {C20 diacid-γGlu-AEEA-AEEA}-E[sY]LGW[Nle][dNMeD][NMeF]-NH2
SMILES: CCCC[C@H](NC(=O)[C@H](Cc1c[nH]c2ccccc12)NC(=O)CNC(=O)[C@H](CC(C)C)NC(=O)[C@H](Cc1ccc(OS(=O)(=O)O)cc1)NC(=O)[C@H](CCC(=O)O)NC(=O)COCCOCCNC(=O)COCCOCCNC(=O)CC[C@H](NC(=O)CCCCCCCCCCCCCCCCCCC(=O)O)C(=O)O)C(=O)N(C)[C@H](CC(=O)O)C(=O)N(C)[C@@H](Cc1ccccc1)C(N)=O
notes: X = Nle or Nal
B3: 2-[2-[2-[[2-[2-[2-[[(4S)-4-Carboxy-4-(17-carboxyheptadecanoylamino)butanoyl]amino]ethoxy]ethoxy]acetyl]amino]ethoxy]ethoxy]acetyl-Glu-sTyr-Leu-Gly-Trp-Nle-DMeAs … (peptide)
peptide: {C18 diacid-γGlu-AEEA-AEEA}-E[sY]LGW[Nle][dNMeD]F-NH2
SMILES: CCCC[C@H](NC(=O)[C@H](Cc1c[nH]c2ccccc12)NC(=O)CNC(=O)[C@H](CC(C)C)NC(=O)[C@H](Cc1ccc(OS(=O)(=O)O)cc1)NC(=O)[C@H](CCC(=O)O)NC(=O)COCCOCCNC(=O)COCCOCCNC(=O)CC[C@H](NC(=O)CCCCCCCCCCCCCCCCC(=O)O)C(=O)O)C(=O)N(C)[C@H](CC(=O)O)C(=O)N[C@@H](Cc1ccccc1)C(N)=O
notes: X = Nle or Nal
B4: bAsp-Phe(4-sulfomethyl)-Nle-Gly-Trp-Nle-DMeAsp-MePhe-amide (peptide)
peptide: [βAsp][Phe(4-CH2SO3H)][Nle]GW[Nle][dNMeD][NMeF]-NH2
modifications: N-terminus assumed
SMILES: CCCC[C@H](NC(=O)[C@H](Cc1ccc(CS(=O)(=O)O)cc1)NC(=O)C[C@H](N)C(=O)O)C(=O)NCC(=O)N[C@@H](Cc1c[nH]c2ccccc12)C(=O)N[C@@H](CCCC)C(=O)N(C)[C@H](CC(=O)O)C(=O)N(C)[C@@H](Cc1ccccc1)C(N)=O
notes: X = Nle or Nal
B5: 17-Carboxyheptadecanoyl-Gly-Ser-Ser-Gly-Ser-Ser-Asp-sTyr-Leu-Gly-Trp-Nle-DMeAsp-MePhe-amide (peptide)
peptide: {C18 diacid}-GSSGSSD[sY]LGW[Nle][dNMeD][NMeF]-NH2
SMILES: CCCC[C@H](NC(=O)[C@H](Cc1c[nH]c2ccccc12)NC(=O)CNC(=O)[C@H](CC(C)C)NC(=O)[C@H](Cc1ccc(OS(=O)(=O)O)cc1)NC(=O)[C@H](CC(=O)O)NC(=O)[C@H](CO)NC(=O)[C@H](CO)NC(=O)CNC(=O)[C@H](CO)NC(=O)[C@H](CO)NC(=O)CNC(=O)CCCCCCCCCCCCCCCCC(=O)O)C(=O)N(C)[C@H](CC(=O)O)C(=O)N(C)[C@@H](Cc1ccccc1)C(N)=O
notes: X = Nle or Nal; The Gly-Ser-Ser-Gly-Ser-Ser linker is written as part of the chain
B6: Asp-sTyr-Phe-Gly-Trp-Nle-DMeAsp-MePhe-amide (peptide)
peptide: D[sY]FGW[Nle][dNMeD][NMeF]-NH2
modifications: N-terminus assumed
SMILES: CCCC[C@H](NC(=O)[C@H](Cc1c[nH]c2ccccc12)NC(=O)CNC(=O)[C@H](Cc1ccccc1)NC(=O)[C@H](Cc1ccc(OS(=O)(=O)O)cc1)NC(=O)[C@@H](N)CC(=O)O)C(=O)N(C)[C@H](CC(=O)O)C(=O)N(C)[C@@H](Cc1ccccc1)C(N)=O
notes: X = Nle or Nal

biological target: T1, human cholecystokinin-2 receptor; test: SPA competition vs [125I]-CCK-8s, membranes
Protocol: (§1) CCK receptor binding assays were performed in 96-well Optiplates (Cat #6005290, PerkinElmer, Waltham, Mass., USA) in a total volume of 200 μl per well.
(§2) The plates were sealed and incubated in the dark at +22° C. for 2 hours on a IKA MTS plate shaker (IKA-Werke D-79219 Staufen) set at 300 rpm and thereafter centrifuged at 1500 rpm for 10 minutes in a Heraeus Multifuge 3s centrifuge. SPA bead light emission was measured in a TopCount NXT (PerkinElmer) for 2 min/well after a delay of 60 min.

Row | Binder | IC50
1 | B1 | 1200 nM
2 | B2 | 430 nM
3 | {C18 diacid-γGlu-AEEA-AEEA}-D[Phe(4-CH2SO3H)]LGW[Nle][dNMeD][NMeF]-NH2 (X = Nle or Nal) | 380 nM
4 | {C18 diacid-γGlu-AEEA-AEEA}-E[sY]LGW[Nle][dNMeD][NMeF]-NH2 (X = Nle or Nal) | 2400 nM
5 | D[sY]RGW[Nle][dNMeD][NMeF]-NH2 (X = Nle or Nal) [Asp-sTyr-Arg-Gly-Trp-Nle-DMeAsp-MePhe-amide] | 1500 nM
6 | {C18 diacid-γGlu-AEEA-AEEA}-D[sY]IGW[Nle][dNMeD][NMeF]-NH2 (X = Nle or Nal) | 340 nM
7 | {C18 diacid-γGlu-AEEA-AEEA}-[dE][sY]LGW[Nle][dNMeD][NMeF]-NH2 (X = Nle or Nal) | 700 nM
8 | B3 | 480 nM
9 | {C16 diacid-γGlu-AEEA-AEEA}-E[sY]LGW[Nle][dNMeD][NMeF]-NH2 (X = Nle or Nal) | 590 nM
10 | {C18 diacid-γGlu-AEEA-AEEA}-D[sY]PGW[Nle][dNMeD][NMeF]-NH2 (X = Nle or Nal) | 5200 nM
11 | {C18 diacid-γGlu-AEEA-AEEA}-D[sY]HGW[Nle][dNMeD][NMeF]-NH2 (X = Nle or Nal) | 9000 nM
12 | B4 | 2900 nM
13 | B5 | 370 nM

biological target: T2, human cholecystokinin-1 receptor; test: SPA competition vs [125I]-CCK-8s, membranes
Protocol: as §1, §2

Row | Binder | IC50
14 | E[sY]LGWQ[dNMeD][NMeF]-NH2 [Glu-sTyr-Leu-Gly-Trp-Gln-DMeAsp-MePhe-amide] | 0.085 nM
15 | {C18 diacid-γGlu-AEEA-AEEA}-[dD][Phe(4-CH2SO3H)][Nle]GW[Nle][dNMeD][NMeF]-NH2 (X = Nle or Nal) | 0.072 nM
16 | EGPWLEEEEEAYGWMDF (N-terminal pyroglutamic acid (pE, Pyr); C-terminal amide; Tyr non-sulfated) | 340 nM
17 | {C18 diacid-γGlu-AEEA-AEEA}-D[Phe(4-CH2SO3H)][Nle]GW[Nle][dNMeD][NMeF]-NH2 (X = Nle or Nal) | 0.26 nM

biological target: T1, human cholecystokinin-2 receptor; test: cell-based or functional assay

Row | Binder | EC50 (CCK-2R)
18 | B1 | 150 nM
19 | B2 | 32 nM
20 | {C18 diacid-γGlu-AEEA-AEEA}-D[Phe(4-CH2SO3H)]LGW[Nle][dNMeD][NMeF]-NH2 (X = Nle or Nal) | 81 nM
21 | {C18 diacid-γGlu-AEEA-AEEA}-E[sY]LGW[Nle][dNMeD][NMeF]-NH2 (X = Nle or Nal) | 62 nM
22 | D[sY]RGW[Nle][dNMeD][NMeF]-NH2 (X = Nle or Nal) [Asp-sTyr-Arg-Gly-Trp-Nle-DMeAsp-MePhe-amide] | 910 nM
23 | B6 | > 1000 nM
24 | {C18 diacid-γGlu-AEEA-AEEA}-D[sY]IGW[Nle][dNMeD][NMeF]-NH2 (X = Nle or Nal) | 210 nM
25 | {C18 diacid-γGlu-AEEA-AEEA}-[dE][sY]LGW[Nle][dNMeD][NMeF]-NH2 (X = Nle or Nal) | 46 nM
26 | B3 | 94 nM
27 | {C16 diacid-γGlu-AEEA-AEEA}-E[sY]LGW[Nle][dNMeD][NMeF]-NH2 (X = Nle or Nal) | 110 nM
28 | {C18 diacid-γGlu-AEEA-AEEA}-D[sY]PGW[Nle][dNMeD][NMeF]-NH2 (X = Nle or Nal) | 300 nM
29 | {C18 diacid-γGlu-AEEA-AEEA}-D[sY]HGW[Nle][dNMeD][NMeF]-NH2 (X = Nle or Nal) | > 1000 nM
30 | D[sY]LGW[Met(O2)][dNMeD][NMeF]-NH2 [Asp-sTyr-Leu-Gly-Trp-Met(O2)-DMeAsp-MePhe-amide] | > 1000 nM
31 | E[sY]LGWQ[dNMeD][NMeF]-NH2 [Glu-sTyr-Leu-Gly-Trp-Gln-DMeAsp-MePhe-amide] | > 1000 nM
32 | B4 | > 1000 nM
33 | B5 | 17 nM

biological target: T2, human cholecystokinin-1 receptor; test: cell-based or functional assay

Row | Binder | EC50 (CCK-1R)
34 | B6 | 0.22 nM
35 | B3 | 0.37 nM
36 | D[sY]LGW[Met(O2)][dNMeD][NMeF]-NH2 [Asp-sTyr-Leu-Gly-Trp-Met(O2)-DMeAsp-MePhe-amide] | 0.37 nM
37 | {C18 diacid-γGlu-AEEA-AEEA}-[dD][Phe(4-CH2SO3H)][Nle]GW[Nle][dNMeD][NMeF]-NH2 (X = Nle or Nal) | 0.37 nM
38 | EGPWLEEEEEAYGWMDF (N-terminal pyroglutamic acid (pE, Pyr); C-terminal amide; Tyr non-sulfated) | 530 nM
39 | B4 | 0.19 nM
40 | B5 | 0.61 nM
